This data set is described as follows: label from the status in PepcDB records.
In the case of “MDKNIWTSRRRRGRSHHRSPALRQCDSSERYTSGASQSSQDSGHHDVECPSTSSSKAGESSVPDLPGFYFDPEKNRYFRLLPGHNNCNPLTKEGIQLKEMESRRLQLLQQEDKQKKKIARVGFNASSILRKNQLGFLNFSSYCRLSHELRVACMERKKVEIQSSDPSALASDRFNFILADTTSDRLFTVNDVKIGGSKYGIISLQGLKAPTFEVHMHENLYFTNRKVNSVCWASLNHLDSHILLCLMGLAETPGCATLLPASLFVSSHQGTDQPGMLCSFRIPGAWSCAWSLNVQANNCFSTGLSRRVLLTNVVTGHRQSYWTNSDVLAQQFAVKTPLLFNGCRSGEIFAIDLRSPSQAKGWKATQIFHDSAVTSVQVFKEEQYLMASDMAGKIKLWDLRATKCVRQYEGHVNEYAYLPLHMHEEEGILVAVGQDCYTRIWSLHDARLLRTIPSPCPTSKANIPSVAFSPRLGGPRGAPGLLMAVQQDLYCFPYSSSCPDGLKEGRWEPSSVSKEDIL”, the protein production entry was “failed”.

As to “MDKQTSPQEEIPELAVAVPQDAAALARALDLEAQTVSTWLTQGLGIVARVGSQIVGLAHLVDDGGHADVTDLALTTPDDADVVAALIGGAEQIATELESRVLVVSGLKASPGPAYHYNSGWVRVLPTRVVVPTAEAMHAFGAALAAQLRAGDIVLASGDLGAGKTTLAQGIGRGLGVDGPVISPTFVLARRHVGSEGRPGLVHVDAYRLGSAAELIDLDLDETMDQAVTLIEWGAGIAEDLGGSHLDVDIRRSGDPADETRVVYLEGFGPRWQDVDLSLLSELPLDTISPDQTGDNN”, the protein production result is given as “failed”.

In the case of “MDLALAPETLARWQFGITTVYHFLFVPLTISLAALTAGLQTAWVRTEKEKYLRATKFWGKLFLINIAMGVVTGIVQEFQFGMNWSDYSRFVGDVFGAPLAFEALIAFFFESTFIGLWIFGWDKLPKKIHLACIWMVSIGTLLSAYFILAANSWMQHPVGYRINEEKGRAELTDFWQVLTQNTTLNQVFHSFSAAFLTGGAFMVGIAAFHLMRKKHIPVMRTSLRLGLVTLAVGGLLTAVSGDTLGKVMYEQQPMKMAAAEALWDGEKPAPFSVFAYGDVDKGHNKVALEVPGLLSFLAHSDFESYVPGINDTNKALQEQFGPGDYKPIVPVAYWGFRWMIGFGMASFSLGLLGLWLTRKRFLLPPALRTGEDEVPHLVLLKKPLGARLTRMYWLLALWTMAFPLIANSWGWIFTEMGRQPWVVYGVMQTRDAVSPGVSTAEVIISMSVFTLLYAVLAVIEVKLLAKYVKAGPPELTEADLNPPTKIGGDLRDADKPMAFSY”, the protein production entry is listed as “failed”.

In the case of “MDLFPVLKELAQKTPSKILLIVLDGVGGLPLEPGGPTELEAAKTPNLDRLAEESALGLLTPVYPGLAPGSGPGHLALFGYDPFRYVVGRGALSALGLGADFREGDVALRGNFATLDPEGKVVDRRAGRPPTEENQRVIAKLKEAIPRIEDVEVLFYTESEHRFLVILRGEGLEDKVTDTDPQKTGLPPLKAKALDEASERTARLVNLLSERIREVLKDEPRMNGALFRGASKKPSFPRMQEVYKLTPAAIASYPMYKGLASLVGMEVLPVEGEGDALEGKLKALKENWGRYDFFYFHVKKTDAMGEDGNFHGKVEKVELFDALLPEILALGPDVLAITGDHSTPALLKAHSWHPVPLLLKAPYLRADEARRFTEREAQRGSLGHLRGVELMPLLLAHAGKLLKYGA”, the protein production entry is “failed”.

“MDLHESESRTHVLSTDGDDGYIDMEVNLSSSSSSSTSSSSFFSFPVTSSPPQSREFEFQMCSSAVASGESTTSPADELFYKGQLLPLHLPPRLKMVQKLLLASSSSTAATETPISPRAAADVLSPRRFSSCEIGQDENCFFEISTELKRFIESNENHLGNSWSKKIKHSSITQKLKASRAYIKALFSKQACSDSSEINPRFKIEPSKVSRKKNPFVNSENPLLIHRRSFSGVIQRHSQAKCSTSSSSSSSASSLSSSFSFGSNGSLDLQTLMRSSNASDNSIEGAIEHCKQSFTTRKSNVTESELCSSRTSVSTCGDLDKD”: the protein production entry is “failed”.

With “MDLIHEKVFVNRYHYDVRNHEWEKENGVPKTNVEVTFQLHHKDKEANNTSVVAVLQFMIVRDEFVISGIVSQMNHIQNRIVNNPKDFSQEEAEYLAAPLLDTLQRLTYEVTEIALDRPGINLEF”, the protein production result was “not failed”.

“MDLKGWISKKSSNVSYEKIKYEFSNVKYSVDHGRLEILHGIKGILLPKTITVIMGPSGSGKTTLLNILSMKVTEGVEGDFLINDMSRMKNIKRHMGYVLQDDYFFSRLTVYETIEFTAKLKLDIRDKKKLNELVHSVLDIMSLTHVKDTIVGDAFIRGISGGQRKRLSIANEILSNPPLLLMDEPTSGLDSSSALSLVECIQRIAQTSNTTIISSLHQPSSQVFSKFDRLIAITNGYIIYHGKTTDLNKYLKKVGFICPYGWNVADYLMDILSNKKFEAILIDNYNKYLHFDSDVGYYMNVKAIDSKIIHDDYDSILEKTNQSISKNSQTNNKSSTNLSSINKSPILSTQENKTREHDILKFQAVELLISLQENKTPYIRQNFFLLIRGLKKIITDEITIIKVIDLVVILTLFGVLWLHTFKEETEEGIIDTIGAIFFILSYWTFYPAYLSLYSFPSEREVIAKERNMKTFQVSNYFLSKLLAEFIYFFMIIAFWILVTHLILYGTLKIGIYLSYAFITLLNALISSSLGYFISTLFDNFSKAVSFLSVVLLTMTLTNGFYVEISKLDVPFRYLQWLSYQTYSASVLAKIKFDDALIKCSPDNNSLPCKNNGFFPGEIIVQKRFATLHISISILILICFYSVIKTFTYVSLRWSQALKMK”: the protein production entry is on record as “failed”.

For “MDLMAYWLCITNEDNWKVIKEKKIWGVAERYKNTINKVKVGDKLIIYEIQRSGKDYKPPYIRGVYEVVSEVYKDSSKIFKPTPRNPNEKFPYRVKLKEIKVFEPPINFKELIPKLKFITNKKRWSGHLMGKAMREIPEEDYKLIVGN”, the protein production entry was “not failed”.

With “MDLNNNKSNNIVKTLARWCLLLQAFMISSNTVALKEPDYVNMNITIRNSMTGLIRPEIVYRCQSKRKDYGWHRSPKPGVQFSFPIILIKGETKIPAIHICQIRSVLGTATLVIQNTYLDAEMCPRSSCAHEATPKGIVFRGLEWDFKTVFPKLKPVEYLELPWTPWPNRT”, the protein production entry is listed as “failed”.

Turning to “MDLRVLLSGLAYSTIFGLSFLFTKNALDYVTPLTFLSFRFIVAFLSYLLLLITGAVKLGKKPYWKLWKLVLFQPVLYFLFETYGLQRVNSSEAGMIIALIPIVVNLLAPFILKEKGDLLHYLLVGMGFLGVSLIVGFNITPGNIVGKVFMLLAVLSGAMYSVFSRKFSKEFTPTEITFFMMMTGAVFFTLLSLSTGDFRPVFNVDVVIGALYLGVLSSTVAFFLLNYAIRKLSPIFTTLFSNFTTVVSVIAGVVFRNETVGIQQIAGMGLIISSLIIMSLRRSYKRLSRAQKL”, the protein production entry is recorded as “failed”.

With “MDLSSKPQQQLLNSLPIAGELTVTGEMGVCYKECLKNHAANLGGHALDGCGEFMPSPTATSTDPSSLRCAACGCHRNFHRRDPSENLNFLTAPPISSPSGTESPPSRHVSSPVPCSYYTSAPPHHVILSLSSGFPGPSDQDPTVVRSENSSRGAMRKRTRTKFTPEQKIKMRAFAEKAGWKINGCDEKSVREFCNEVGIERGVLKVWMHNNKYSLLNGKIREIEHGLCLNTHSNDGDGSSSS”, the protein production result is reported as “not failed”.

Regarding “MDLTIQHFIALAPLLITSLTVVVVMLAIAWRRNHSQTFLLSVAGLNLALLSIYPALKVAPLVVTPLLHIDNFACLYMAIILASTLACVTMAHAYLGDGKVGYPGNREELYLLILLAAAGGLVLVSAQHLAGLFIGLELLSVPVYGLVAYAFFNKRSLEGGIKYMVLSAAGSAFLLFGMALLYAEAGSLSFEGIGKAIAATGMPSPIATVGLGMMVVGLAFKLSLVPFHLWTPDVYEGAPAPVAAFLATASKVAVFAVLVRLFQISPAASSGVLHDVMAVIAVASILVGNLLALTQTNLKRLLGYSSIAHFGYLMIALVASKGMAVEAIGVYLATYVLTSLGSFGVITMMSSPYSGRDADAMFEYRGLFWRRPYLTAVMTLMMLSLAGIPLTAGFIGKFYIIATGVESQLWWLIGALVIGSAIGVFYYLRVMVTMYLVDNKLPRHDAAINWAQRTGGVMLLAVAILTFVLGVYPQPLLDLVVNAGLHAAG”, the protein production entry was “not failed”.

In the case of “MDLVVITETTIPTKITHVNKKSSDELLRKFADPDDVDESSKSTKRRKKSAKSSSREKGVDIESNTSGLVERKRLLLAPASKRRSLFIRQLASGKSHLRNKSLVRTIGKTWRKTMEGASRVFIEKHYNRHRRLTNDVV”, the protein production result is recorded as “failed”.

On to “MDMEQRERWATKIGLILAMAGNAIGLGNFVRFPTQVAGNGGGAFMVPYFLALFLLGIPVMWVEWVQGRYGGKYGHGTLGPTFYLMARESLKPRSALWFGLIGGALAFATTTLLNSYYLHLIGWSAAYSWFSITGAYYGKNTAQFFSQYLSNHGLVFLFWGITVVLLGIAVGQGVSKGIERWVKVMMPLLYVFAIILVIYVFALGSPLGQPQWSTIKGFEFIWSPNWGYLKDHLWKVMLAASGQIFFTLSLGMGIIQNYASYLGPKDDVALSGLATVSLNEFAEVVLGGSIAVPLAVAYAPKIVPPDVLAKGSDAALAWISENFGLGFSYTSLPNIFVQMGTAGRFFGALWFLLLWFAGFTSAIAMYNYLTALLEEDLGIKRSVGTWVVFIIYFLLGIPVVYINGYLDQVDAWISFQLALLALFDIIVSVWLFKPDNFWRELHEGALINVPEFYKWITVIIAPIFIALPLFGTFTDLVSKTLGWPAKIAILTMLTIGAIEAYYAIKKKYGEELEKNEVIIKV”, for which the protein production result is “failed”.

For “MDNASEQRNYTTFWVGLASLTLEVVFIMAKSRVKKRPDGRYAMQIYLGTVDGKRKYKTVYGGTPKEVQKKADEVRILMGKGIDISAQRDTFKEWGNHWLKIKKAIVSSAHYKTCEQKLRIINCYIGDMPISQIKTANVQNIIFDLSSLNRWTGKPTAKRTLVEYRSVCRQVFQLAIENRIIDYNPASSVKIVSNQLKKERRALSVEEQGWIINTPHRAQKAAMIMMFAGLRRGEVIPLTWNDIDFEAGTIRVNKSVFKEGTRFNIKSGAKTESGNRVVNIPQILIDFLKLQPKDTILVCPDTKDVMMTETSWRRMWDSYIKDLNIKYGDLNGKRSKYDPKGVPITIPRITPHWLRHTFCTLLYLSGTDVLTAKEQMGHSDIKTTLGIYTHLDKEHKRNAVSKLNEYIETHASHMQVKNS”, the protein production entry was “failed”.

With “MDNLSFHDGNIFNLLHTRSQDPSHEVDQRMQFHSSLVRRLSQEQELEGHQGCVNALAWNSNGSLLISGSDDLRINIWNYSSRKLLHSIDTGHTANIFCTKFVPETSDELVVSGAGDAEVRLFNTSRLSGRAEDDNAIIPSALYQCHTRRVKKLAVEPGNPNVVWSASEDGTLRQHDFRESTSCPPAGTAHQECRSVLLDLRSGAKRALADPPKQTLSLKSCDISATRPHLLLVGGSDAFARLYDRRMLPPLASSRKRMPPPPCVNYFCPMHLSERGRTNLHLTHVTFSPNGEEVLLSYSGEHVYLMNVNNGICSTGIMQYTPGDVDNLFSFSNNLHDVESPPQVSTTPQNGFHRSSNAATVKKCTELVEIAKWSLEEGTDVFYAIEAANEVLDAHSNDIESALRHECLCTRAALLLKRKWKNDAHMAVRDCHNARRIDASSFKAHYYMSEALQQLGKCKEALDFATAAQHMNPSDADIVAKVESIKRDLQAAGAEKNEETGAGTTRVLSLSDILYRSEANSDSSHDMSRSEREDSDYDEELELDIQTSLSDDEGRDTDSNSMRGSLNLRIHRVGDDKPMENTVDNASSGTASSSQNDRTSYQPEGAIDMKRRYVGHCNVGTDIKQASFLGQRGEYIASGSDDGRWFIWEKQTGRLMKVLVGDESVLNCIQCHPFDSVVATSGIDNTIKIWSPTASVPSIVAGGSAGPATANVVEVMESNQQKLSRNRENPLSVELMQRFRMQEFAEGNFHPFECTQS”, the protein production entry was “failed”.

For “MDNRTGEMEVFVSAAELQSFSAAGRRLKLSPSAVSKLVTRIEDRLGTRLLVRSTRMMTLTPEGEIYLARARRILADIADTEQIVAAGGKLVPRGLLRVNASVGFGERFLLPLIPAFLELYPEVQLDISLTDGIIGLIEERTDIAIRSGAMDDSSLKARKLLESRRVIIASPSYIKRHGMPQTPADLAAHNCFSFNFRRSLNEWPFRDPGSTEIYRLPVSGNSSVNSGMIMRRLCLAGSGLGRVGQFHVQPDIDAGTLVPVLEDYNPDDIEEIHAVFAGHEHLATRIRAFIDFLAEHVGKDRA”, the protein production result is “failed”.

For the origin of these results see a protein production outcome set (Wang et al. 2014).
